From paper PMC11969672 (Nucleic Acids Research, 2025) come the findings set out here.

In series [1] the target is T1, L3MBTL3–SAM (residues 705–773) (UniProt Q96JM7 705-773).
T1 sequence (looked up): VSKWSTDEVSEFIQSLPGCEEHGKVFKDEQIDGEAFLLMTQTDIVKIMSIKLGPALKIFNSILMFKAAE
As to the kind of experiment: SEC. On the technique in general: Size exclusion chromatography separates by hydrodynamic size, large species first.

The series “negative-staining EM” deals with the molecule itself. In words: negative-staining EM.

B1: SAMD1–SAM (residues 459–523 with L495R mutation) (domain or fragment, human, UniProt Q6SPF0 459-523, looked up)
chain: PVEWTVMDVVEYFTEAGFPEQATAFQEQEIDGKSLLRMQRTDVLTGLSIRLGPALKIYEHHIKVL
For B1, in series [1], the binding result is “binds”.

B2: wild-type full-length SAMD1 (natural protein, human, UniProt Q6SPF0 1-538, looked up)
chain: MAGPPALPPPETAAAATTAAAASSSAASPHYQEWILDTIDSLRSRKARPDLERICRMVRRRHGPEPERTRAELEKLIQQRAVLRVSYKGSISYRNAARVQPPRRGATPPAPPRAPRGAPAAAAAAAPPPTPAPPPPPAPVAAAAPARAPRAAAAAATAPPSPGPAQPGPRAQRAAPLAAPPPAPAAPPAVAPPAGPRRAPPPAVAAREPPLPPPPQPPAPPQQQQPPPPQPQPPPEGGAVRAGGAARPVSLREVVRYLGGSGGAGGRLTRGRVQGLLEEEAAARGRLERTRLGALALPRGDRPGRAPPAASARPSRSKRGGEERVLEKEEEEDDDEDEDEEDDVSEGSEVPESDRPAGAQHHQLNGERGPQSAKERVKEWTPCGPHQGQDEGRGPAPGSGTRQVFSMAAMNKEGGTASVATGPDSPSPVPLPPGKPALPGADGTPFGCPPGRKEKPSDPVEWTVMDVVEYFTEAGFPEQATAFQEQEIDGKSLLLMQRTDVLTGLSIRLGPALKIYEHHIKVLQQGHFEDDDPDGFLG
B2: in the series “negative-staining EM”, the binding result was “binds”.
